Data published in US20250230246A1 (SAMYANG BIOPHARM USA, published 2025).

T1: Human CD32a (FcγRIIA) (human, UniProt P12318 34-217, limits assumed)
T1 sequence (looked up): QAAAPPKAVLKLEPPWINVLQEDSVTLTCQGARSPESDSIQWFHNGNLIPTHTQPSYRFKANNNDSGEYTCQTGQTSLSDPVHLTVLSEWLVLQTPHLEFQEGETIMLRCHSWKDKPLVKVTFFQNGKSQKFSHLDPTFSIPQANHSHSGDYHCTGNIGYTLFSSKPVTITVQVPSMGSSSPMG

B1: SYB-010 (antibody, human IgG1, kappa)
heavy: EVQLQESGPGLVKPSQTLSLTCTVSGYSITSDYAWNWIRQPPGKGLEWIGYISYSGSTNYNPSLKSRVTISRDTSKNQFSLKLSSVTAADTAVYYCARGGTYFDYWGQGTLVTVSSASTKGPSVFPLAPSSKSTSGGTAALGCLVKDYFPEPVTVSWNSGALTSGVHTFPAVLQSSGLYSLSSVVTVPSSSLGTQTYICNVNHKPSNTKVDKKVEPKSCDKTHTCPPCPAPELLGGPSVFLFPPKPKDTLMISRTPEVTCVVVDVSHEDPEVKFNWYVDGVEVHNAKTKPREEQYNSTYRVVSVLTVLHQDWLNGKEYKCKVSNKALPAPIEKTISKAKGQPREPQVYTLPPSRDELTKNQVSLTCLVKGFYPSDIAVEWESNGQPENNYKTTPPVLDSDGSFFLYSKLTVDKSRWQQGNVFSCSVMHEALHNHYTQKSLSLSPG
light: DVVMTQSPSTLSASVGDRVTITCRASAHINNWLAWYQQKPGKAPKLLISDATSLESGVPSRFSGSGSGKEYTLTISSLQPDDFATYYCQHYWSTPWTFGQGTKVEIKRTVAAPSVFIFPPSDEQLKSGTASVVCLLNNFYPREAKVQWKVDNALQSGNSQESVTEQDSKDSTYSLSSTLTLSKADYEKHKVYACEVTHQGLSSPVTKSFNRGEC
notes: also called SYB-010 Fc wildtype
B2: SYB-011 (antibody, human IgG1, kappa, L234A L235A)
heavy: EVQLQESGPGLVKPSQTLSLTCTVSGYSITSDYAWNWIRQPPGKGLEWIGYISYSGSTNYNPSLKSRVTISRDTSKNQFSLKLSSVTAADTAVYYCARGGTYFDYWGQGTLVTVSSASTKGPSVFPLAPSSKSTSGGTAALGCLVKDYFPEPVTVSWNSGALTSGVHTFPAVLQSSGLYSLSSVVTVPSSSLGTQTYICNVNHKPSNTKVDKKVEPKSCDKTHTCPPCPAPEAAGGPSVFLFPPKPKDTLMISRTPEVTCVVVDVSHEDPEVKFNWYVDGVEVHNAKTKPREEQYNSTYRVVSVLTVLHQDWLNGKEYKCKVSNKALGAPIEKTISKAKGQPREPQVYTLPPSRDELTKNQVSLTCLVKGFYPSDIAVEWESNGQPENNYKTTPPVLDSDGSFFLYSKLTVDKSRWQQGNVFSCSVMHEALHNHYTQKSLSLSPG
light: DVVMTQSPSTLSASVGDRVTITCRASAHINNWLAWYQQKPGKAPKLLISDATSLESGVPSRFSGSGSGKEYTLTISSLQPDDFATYYCQHYWSTPWTFGQGTKVEIKRTVAAPSVFIFPPSDEQLKSGTASVVCLLNNFYPREAKVQWKVDNALQSGNSQESVTEQDSKDSTYSLSSTLTLSKADYEKHKVYACEVTHQGLSSPVTKSFNRGEC
notes: Positions are EU index numbers; also called SYB-011 Fc mutant; effectorless anti-MIC antibody

Tests used:
[1] = biological target: MICB*005 (human); assay: kinetic binding assay (ka, kd, Rmax in RU; method not named)
[2] = biological target: MICA*008 (human); assay: as above
[3] = biological target: T2, Human CD64 (FcγRI) (human, UniProt P12314 16-288, limits assumed); assay: as above
[4] = biological target: T1, Human CD32a (FcγRIIA); assay: as above
[5] = biological target: T2, Human CD64 (FcγRI); assay: kinetic binding assay (Table 2); ND = not detectable
[6] = biological target: T1, Human CD32a (FcγRIIA); assay: as above

T2 sequence (P12314 16-288 limits assumed): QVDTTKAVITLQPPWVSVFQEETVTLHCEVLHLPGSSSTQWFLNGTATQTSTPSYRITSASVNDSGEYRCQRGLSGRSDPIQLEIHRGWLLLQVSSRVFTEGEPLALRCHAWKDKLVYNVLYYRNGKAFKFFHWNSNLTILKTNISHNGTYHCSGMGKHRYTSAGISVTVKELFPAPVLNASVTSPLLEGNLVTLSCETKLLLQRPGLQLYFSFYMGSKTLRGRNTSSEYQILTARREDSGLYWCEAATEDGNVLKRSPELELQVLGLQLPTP

Kd [1]	koff [1]	kon [1]	Kd [2]	koff [2]	kon [2]	Kd [3]	koff [3]	kon [3]	Kd [4]	koff [4]	kon [4]	binding result [5]	binding result [6]	Binder
21 nM	0.0394 s⁻¹	1.88e+06 M⁻¹ s⁻¹	0.98 nM	0.000627 s⁻¹	639000 M⁻¹ s⁻¹	1.61 nM	0.00133 s⁻¹	825000 M⁻¹ s⁻¹	1540 nM	0.772 s⁻¹	500000 M⁻¹ s⁻¹	–	–	B1
19.8 nM	0.0939 s⁻¹	4.74e+06 M⁻¹ s⁻¹	1.04 nM	0.000617 s⁻¹	596000 M⁻¹ s⁻¹	–	–	–	–	–	–	no binding	no binding	B2
